T1: Paxillin-associated protein with ARF GAP activity 3 peptide (18-mer) (human)
T1 peptide: GISQIRPPPLPPQPPSRL

T2: Large proline-rich protein BAT3 peptide (18-mer) (human)
T2 peptide: QTLGQQVPGFPTAPTRVV

T3: Dynein heavy chain 6 peptide (18-mer) (human)
T3 peptide: EKERPPKPEAPWLPTATW

T4: Protein Shroom 3 peptide (18-mer) (human)
T4 peptide: ASDSGRGPQRPDARLLRS

T5: CDK5 and ABL1 enzyme substrate 1 peptide (18-mer) (human)
T5 peptide: GCIALAAPGTPAAGLAAG

T6: Eukaryotic translation initiation factor 2-a kinase 3 peptide (18-mer) (human)
T6 peptide: VRISEKFPSSPKALESVT

T7: SRA stem-loop–interacting RNA binding protein, mitochondrial peptide (18-mer) (human)
T7 peptide: VQVHTRRPKLPQTSDDEK

T8: Chromodomain helicase-DNA binding protein 3 peptide (18-mer) (human)
T8 peptide: YLNLSQEPAHPAMALHAR

T9: Calpain-2 catalytic subunit peptide (18-mer) (human)
T9 peptide: AGTLFQDPSFPAIPSALG

T10: Protein FAM134C peptide (18-mer) (human)
T10 peptide: ALVEVLGPYEPLLSRVQA

T11: Serotransferrin peptide (18-mer) (human)
T11 peptide: NLREGTCPEAPTDECKPV

T12: Vigilin peptide (18-mer) (human)
T12 peptide: PTYKDAFPPLPEKAACLE

T13: Cathepsin B peptide (18-mer) (human)
T13 peptide: CGTFLGGPKPPQRVMFTE


Experiments:
Test in all cases: peptide or protein array
[1] = biological target: T1, Paxillin-associated protein with ARF …
[2] = biological target: T2, Large proline-rich protein BAT3 peptide …
[3] = biological target: T3, Dynein heavy chain 6 peptide (18-mer)
[4] = biological target: T4, Protein Shroom 3 peptide (18-mer)
[5] = biological target: T5, CDK5 and ABL1 enzyme substrate 1 …
[6] = biological target: T6, Eukaryotic translation initiation …
[7] = biological target: T7, SRA stem-loop–interacting RNA binding …
[8] = biological target: T8, Chromodomain helicase-DNA binding …
[9] = biological target: T9, Calpain-2 catalytic subunit peptide …
[10] = biological target: T10, Protein FAM134C peptide (18-mer)
[11] = biological target: T11, Serotransferrin peptide (18-mer)
Vigilin peptide (18-mer) = biological target: T12, Vigilin peptide (18-mer)
[12] = biological target: T13, Cathepsin B peptide (18-mer)

relative binding strength (% of the strongest interaction of this SH3 domain) [1] [%]	relative binding strength (% of the strongest interaction of this SH3 domain) [2] [%]	relative binding strength (% of the strongest interaction of this SH3 domain) [3] [%]	relative binding strength (% of the strongest interaction of this SH3 domain) [4] [%]	relative binding strength (% of the strongest interaction of this SH3 domain) [5] [%]	relative binding strength (% of the strongest interaction of this SH3 domain) [6] [%]	relative binding strength (% of the strongest interaction of this SH3 domain) [7] [%]	relative binding strength (% of the strongest interaction of this SH3 domain) [8] [%]	relative binding strength (% of the strongest interaction of this SH3 domain) [9] [%]	relative binding strength (% of the strongest interaction of this SH3 domain) [10] [%]	relative binding strength (% of the strongest interaction of this SH3 domain) [11] [%]	relative binding strength (% of the strongest interaction of this SH3 domain) (Vigilin peptide (18-mer)) [%]	relative binding strength (% of the strongest interaction of this SH3 domain) [12] [%]	Binder
100	58	95	37	–	–	–	–	–	–	–	–	–	GST-tagged ARHGAP10 SH3 domain (domain or fragment, human, UniProt A1A4S6 731-786, looked up) RKARAVYPCEAEHSSELSFEIGAIFEDVQTSREPGWLEGTLNGKRGLIPQNYVKLL
–	–	–	–	7	15	7	88	49	85	49	5	100	GST-tagged RICS SH3 domain (domain or fragment, human, UniProt A7KAX9 262-320, looked up) GAAHVIKRYTARAPDELTLEVGDIVSVIDMPPKVLSTWWRGKHGFQVGLFPGHCVELIN

— paper PMC3553496 (Science signaling, 2011)
